Measurements reported in the supplement of paper PMC9732359.
± gives the uncertainty stated by the source.

Assay: protein stability index of a GFP-peptide fusion (yeast GPS) (PSI 1-4); higher = more stable; sorted into four equal gates, so the index is relative within each strain
Outline: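 Plasmids in a pooled yeast library fused tiled 17-residue yeast protein peptides downstream of GFP and also expressed Cherry. Mid-log cultures grown without leucine were sorted into four equal gates by GFP/Cherry fluorescence ratio. Each gate's plasmids were PCR-amplified and Illumina-sequenced, and reads were matched to strains by barcodes. The protein stability index is derived by multiplying each gate's read frequency by its gate number and summing the results.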

Sequence | protein stability index (doa10∆) | protein stability index (pdr5∆) | protein stability index (san1∆) | protein stability index (ubr1∆)
IRRLRVLRRLLAKYRDA [RPL19A] | 1.19 ± 0.067 | 1.41 ± 0.058 | 1.34 ± 0.17 | 1.25 ± 0.057
VSLTQLRCVKYLQETAI [RPC82] | 1.82 ± 0.14 | 2.18 ± 0.1 |  | 3.1 ± 0.28
PTDDKTLKPTFSFTEPA [YOR098C/NUP1] | 3.14 ± 0.088 | 2.65 ± 0.089 | 2.91 ± 0.072 | 3.07 ± 0.042
EHFLKLNIDFGSDKQMF [YML103C/NUP188] | 2.61 ± 0.075 | 2.59 ± 0.07 | 2.26 ± 0.1 | 3.16 ± 0.061
SAPAPAAAAPAPVAAAA [FAS2] | 3.24 ± 0.24 | 3.21 ± 0.28 | 2.49 ± 0.13 | 3.28 ± 0.29
ESGIKPYFEQKIQETEL [RPT6] | 2.93 ± 0.13 | 3.24 ± 0.14 | 2.64 ± 0.061 | 3.23 ± 0.094
QKRQLHDISKTETSNED [SNU114] | 3.06 ± 0.049 | 2.97 ± 0.045 | 2.98 ± 0.039 | 3.044 ± 0.03
QEGLITTTMLQLFSTFD [SSN2] | 2.58 ± 0.051 | 2.57 ± 0.072 | 2.55 ± 0.056 | 2.61 ± 0.034
VDVLVISSHSHPVSLIS [RRP42] | 1.5 ± 0.046 | 1.53 ± 0.048 | 1.57 ± 0.062 | 1.67 ± 0.03
KNGVIPEESKGSFKYIT [SWP82] | 3.03 ± 0.05 | 3.09 ± 0.067 | 2.96 ± 0.047 | 3.18 ± 0.052
NIGETAGVVQDIGSDPT [RPB9] | 2.77 ± 0.089 | 3.25 ± 0.085 | 2.72 ± 0.11 | 2.92 ± 0.056
EGEKCHPQDFGNPGRIR [SEC65] | 3.03 ± 0.076 | 2.76 ± 0.066 | 2.81 ± 0.057 | 3.08 ± 0.047
IGVETGSEPLIQQVVEY [PRP28] | 2.99 ± 0.065 | 3.08 ± 0.084 | 2.95 ± 0.067 | 2.73 ± 0.16
GENNINFQKASATLDGC [BRN1] | 2.94 ± 0.23 | 3.3 ± 0.21 | 3.12 ± 0.25 | 
TGKITKMFQDIRLSKIL [CDC53] | 2.73 ± 0.07 | 3.03 ± 0.093 | 2.66 ± 0.071 | 2.86 ± 0.069
IRSVALNDSNVKSFKPH [RRP42] | 2.63 ± 0.083 | 3.23 ± 0.17 | 2.62 ± 0.23 | 2.98 ± 0.13
KLLFDHDELDMNECIAD [ESC2] |  |  | 1.03 ± 0.22 | 
KKGEYARFKSKDERDTW [SMC3] |  | 3.23 ± 0.17 | 2.69 ± 0.098 | 3.32 ± 0.17
ILDINVSSSKNKKSEEN [SWP82] | 3.36 ± 0.15 | 3.21 ± 0.083 | 3.27 ± 0.08 | 3.27 ± 0.079
EIRAKEYKTSSDSLGPD [SRB2] | 2.81 ± 0.087 | 2.87 ± 0.058 | 3.04 ± 0.053 | 2.98 ± 0.06
LYYRPHINKKSQLDLFL [GRR1] | 1.78 ± 0.071 | 2.17 ± 0.12 | 1.28 ± 0.1 | 1.85 ± 0.093
GGSATARHKKKVENLDY [YML031W/NDC1] | 3.4 ± 0.14 | 3.38 ± 0.14 | 3.06 ± 0.12 | 3.62 ± 0.29
DYSRKQLGYGKFLILNE [NUT1] | 2.97 ± 0.2 | 2.31 ± 0.14 |  | 3.18 ± 0.22
KIQQHNTILNSSSDFRL [BRR2] | 2.71 ± 0.06 | 2.89 ± 0.067 | 2.89 ± 0.041 | 2.78 ± 0.046

Sequence | protein stability index (doa10∆) | protein stability index (pdr5∆) | protein stability index (san1∆) | protein stability index (ubr1∆)
LAEIKKTPLLKQYLSAS [RPL6B] | 1.54 ± 0.038 | 1.55 ± 0.049 | 1.24 ± 0.094 | 1.51 ± 0.036
ELLANKCPLLVEVDITL [GRR1] | 1.44 ± 0.06 | 1.58 ± 0.047 | 1.59 ± 0.082 | 1.47 ± 0.041
IDQVNELVTISWVQPRI [RPN9] | 3.33 ± 0.069 | 3.28 ± 0.069 | 3.22 ± 0.045 | 3.15 ± 0.067
QEAIQQNRRLAFEELEG [PRP8] | 2.24 ± 0.12 | 2.62 ± 0.28 | 2.74 ± 0.24 | 2.75 ± 0.12
KHWTEKSLHEMNERDWR [PRP28] | 3.55 ± 0.21 | 3.02 ± 0.3 | 2.97 ± 0.2 | 
GSKQADRMAKYLHIRDK [PGD1] | 3.08 ± 0.12 | 3.3 ± 0.097 | 3.09 ± 0.057 | 3.14 ± 0.071
RIHAKNFEAALFAKSSS [GAL11] | 2.67 ± 0.086 | 2.54 ± 0.072 | 2.74 ± 0.099 | 2.56 ± 0.047
FEIIDEASKKSAVKPRP [FAS1] | 3.21 ± 0.13 | 3.28 ± 0.14 | 3.45 ± 0.064 | 3.3 ± 0.066
GKLWKDVKARIAAGDGD [QCR9] | 2.3 ± 0.11 | 2.58 ± 0.16 | 2.17 ± 0.07 | 2.37 ± 0.098
PVNSADGKEDVEKGTPL [SME1] | 3.45 ± 0.12 | 3.25 ± 0.21 | 3.52 ± 0.058 | 
VSKVQKRKVLELKKKRK [SRP72] | 2.78 ± 0.1 | 2.57 ± 0.13 | 2.24 ± 0.1 | 2.48 ± 0.054
KMDFSSKEGQYKAKIKE [YIL149C/MLP2] | 3.2 ± 0.074 | 3.27 ± 0.071 | 3.17 ± 0.063 | 3.16 ± 0.048
LTNGVTEHVRQNAKLLA [RRP6] | 1.6 ± 0.041 | 1.88 ± 0.073 | 1.99 ± 0.23 | 1.59 ± 0.069
IEEIEYNVKNIIQGRKN [PCI8] | 2.38 ± 0.059 | 2.18 ± 0.052 | 2.39 ± 0.095 | 1.76 ± 0.042
TNSVRLFEVNPSQTLFS [SRP21] | 2.65 ± 0.09 | 2.51 ± 0.078 | 2.2 ± 0.073 | 2.56 ± 0.047
GKHNLTIWCVCDSYLDA [BRR2] | 2.04 ± 0.059 | 2.26 ± 0.083 | 2.73 ± 0.093 | 2.31 ± 0.045
KTAIEGSYIDKKCPFTG [RPS11A] | 3.12 ± 0.069 | 3.37 ± 0.075 | 3.08 ± 0.051 | 3.27 ± 0.036
YVNDVAIYNNPTRIRTK [RRI2] | 1.81 ± 0.052 | 2.54 ± 0.032 | 2.19 ± 0.058 | 2.4 ± 0.04
IDLLLLGQERATDLAGP [PRP8] | 2.47 ± 0.047 | 2.58 ± 0.083 | 2.34 ± 0.087 | 2.29 ± 0.05
KKFVSQIQKNVDLLQFP [POP3] | 2.65 ± 0.064 | 2.23 ± 0.073 | 3.34 ± 0.065 | 2.64 ± 0.053
VVWYQRLTMGNVFTPEI [RRI2] | 2.03 ± 0.074 | 2.3 ± 0.058 | 2.27 ± 0.12 | 2.45 ± 0.073
DSEDEDSMKDTTDMISV [YML031W/NDC1] | 3.17 ± 0.17 |  | 3.2 ± 0.11 | 2.98 ± 0.21
DPESRTQSYNNQNTLKE [POP1] | 2.72 ± 0.069 | 2.69 ± 0.056 | 2.88 ± 0.079 | 2.79 ± 0.05
NSTNSNTTKPAFGGLNF [YJL041W/NSP1] | 3.29 ± 0.082 | 3.29 ± 0.09 | 3.14 ± 0.059 | 3.47 ± 0.076

Sequence | protein stability index (doa10∆) | protein stability index (pdr5∆) | protein stability index (san1∆) | protein stability index (ubr1∆)
IFLKRKDFTNKNLIQLI [SRB8] | 1.31 ± 0.053 | 1.43 ± 0.041 | 1.28 ± 0.086 | 1.4 ± 0.041
LFYFDSSFRPCPLSQQF [BRR2] | 2.47 ± 0.072 | 1.89 ± 0.051 | 2.68 ± 0.061 | 2.41 ± 0.033
RHLVNRGREEAASFKKL [PRE10] | 3.07 ± 0.059 | 3.2 ± 0.1 | 3 ± 0.084 | 2.85 ± 0.089
VVGQNQLIDQFEWDISN [SNF5] | 2.52 ± 0.093 | 2.62 ± 0.1 | 2.9 ± 0.062 | 3 ± 0.12
KIAVLNNDKREIQEELE [SMC1] | 3.23 ± 0.067 | 3.37 ± 0.056 | 3.32 ± 0.039 | 3.25 ± 0.047
TKGENYQLVKTLGEQLI [FAS2] | 3.06 ± 0.11 | 3.24 ± 0.13 | 2.6 ± 0.13 | 3.27 ± 0.15
LARACAAQTNATFLKLA [RPT5] | 2.76 ± 0.13 | 2.93 ± 0.089 | 2.93 ± 0.099 | 2.6 ± 0.27
KKPGKIAKPNTANAKHT [SMB1] | 2.87 ± 0.071 | 2.73 ± 0.091 | 2.75 ± 0.089 | 2.85 ± 0.066
YELYINKLTILGRDYPI [IRR1] | 1.31 ± 0.032 | 1.57 ± 0.038 | 1.44 ± 0.055 | 2.04 ± 0.032
TSLKKIKDEIDDPFTKI [SWI1] | 3.41 ± 0.17 | 3.24 ± 0.22 |  | 3.49 ± 0.13
NNGNNSTSIQYHGISKN [POP6] | 2.48 ± 0.063 | 2.51 ± 0.06 | 2.65 ± 0.044 | 2.22 ± 0.07
MDVDSVKTTLVSLTQLR [RPC82] | 2.57 ± 0.1 | 1.81 ± 0.074 | 2.08 ± 0.12 | 1.5 ± 0.093
RELEQIKPKIALQDKEI [SNF12] | 3.15 ± 0.18 | 3.35 ± 0.17 |  | 3.05 ± 0.13
MTYKNKLTVCFDDILKV [MED2] | 2.13 ± 0.048 | 2 ± 0.041 | 1.9 ± 0.071 | 2.08 ± 0.033
NNNNKSINKNNKEMHTD [SSN2] | 3.01 ± 0.087 | 2.99 ± 0.082 | 2.75 ± 0.073 | 3.17 ± 0.093
NKEGTLEQREQNENLPS [SSN2] | 3.02 ± 0.11 | 3.06 ± 0.074 | 3.09 ± 0.057 | 3.05 ± 0.057
LVLADAFDIELSEFGIK [YCS4] | 2.92 ± 0.052 | 3.06 ± 0.057 | 2.9 ± 0.068 | 2.89 ± 0.046
AGKFPTPVSHNDDLYGK [RPL1A] | 2.26 ± 0.041 | 2.62 ± 0.056 | 2.21 ± 0.057 | 2.45 ± 0.043
QHGFEVQVGPMKVFVTK [RPB7] | 2.26 ± 0.065 | 2.41 ± 0.079 | 2.43 ± 0.089 | 2.52 ± 0.09
DLIETSFTCFAQFVSNK [NUT1] | 2.64 ± 0.093 | 2.01 ± 0.075 | 1.92 ± 0.11 | 2.77 ± 0.076
AHLWQKIHESIVFDICQ [PRP8] | 2.56 ± 0.09 | 2.69 ± 0.11 | 2.27 ± 0.13 | 2.39 ± 0.098
NISIITLELESFLEGSK [RGR1] | 2.44 ± 0.054 | 2.48 ± 0.059 | 2.75 ± 0.059 | 2.94 ± 0.071
IRRTFNIVNDFTPEEEA [SKP1] | 2.71 ± 0.099 | 3.28 ± 0.05 | 3.16 ± 0.05 | 3.08 ± 0.041
RRKFDPSSSENVMTPRE [UBP6] |  | 1.99 ± 0.11 | 2.45 ± 0.22 | 2.96 ± 0.23
